Assay results: the nanobody polyreactivity screen of Harvey et al. (2022)

Assay: yeast display, Sf9 membrane polyspecificity reagent, FACS + sequencing; frameworks hold sequencing errors
Summary of the method: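 Sorting gates, low and high (top ~1%), were placed on anti-HA fluorescence to track expression and on streptavidin fluorescence to track reagent binding. A clone's polyreactivity label is taken from the gate it came out of. The reagent was 10% biotinylated, detergent-solubilized Sf9 membrane, applied for 1 hour at 4 °C to galactose-induced yeast display cells.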

QVQLVESGGGLGQAGGSLRLTCAASGSIFRSYAMGWYRQAPGKESEFVATISSSTGSTYYADSVKGRFSISRDNAKNTVYLPMNSLKPEFTAVYYCAAVQPVKSSSGYHFWYYWGQGTQVTVSS
polyreactivity (PSR sort gate): high polyreactivity

QVQLVESGGGLVQAGGSLRLSCAASGFIFIYDMGWYRQAPGKERELVAAITSSDGSTYYADSVKGRFTISRDNAKNTVYLQMNSLKPEDTAVYYCNAKYPWGNYNSVSYDYWGQGTQVTVSS
polyreactivity (PSR sort gate): high polyreactivity

QVQLVESGGGLVQAGGSLRLSCAASGSNFHLYAMGWYRQAPGKERELVADIDLSGGSTYYADSVKGRFTISRDNAKNTVYLQMNSLKPEDTAVYYCGADHVSSLGFDYWGQGTEVTVSS
polyreactivity (PSR sort gate): low polyreactivity

QVQLVESGGVLVQPRGSLRLICAASGSTLAGNAMGWYRQAPGKEREFVAAISWSGGRTYYADSVKGRFTISRDNAKMTVYLQMNRMKPEDTAVYYCAARRGQTRYQYYYWGQGTQVTVSS
polyreactivity (PSR sort gate): high polyreactivity

QVQLVESGGGLVQAGGSLRLSCAASGIIFDFYAMGGYRQAPGKEREFVAAINSGSGSTYYADSVKGRFTISRDNAKNTVYLQMNSLKPVDTAVYYCAADGLSATLTWYSYDYWGQGTQVTVSS
polyreactivity (PSR sort gate): low polyreactivity

QVQLVESGGGLVQAGGSLRLSCAASGFIFTDYAMGWYIQAPGKERELVAGISGSGGRTYYADSVKGRFTISRDNAKNTVYLQMNSLKPEDTAVYYCAARGVPWLWYFRGMYWGQGTQVTVSS
polyreactivity (PSR sort gate): high polyreactivity

QVQLVETGGGLVQAGGSLRLSCAASGRTFGYYTMGCYRQAPGKERELVAGISSAGSTNYADSVKGRFTISRDNAKNTVYLQMNSLKPADTAVYYCAARTYKVIQNNSWETYYYWGQGTQVTVSS
polyreactivity (PSR sort gate): high polyreactivity

QVQLVESGGGIVQAGGSLRLSWAASGRNFLDYTMGWYRQAHGKERELVAAIRTSAGSTYYADSVKGRFTISRDNAKNTVYLQMNILKPEYTAVYYCAAEYYVQYYYRYDYWGQGTQVTVSS
polyreactivity (PSR sort gate): low polyreactivity

QVQLEESGGGLVQAGGSLRLRCAASGRTFGYYAMGWYRQAPGKERQLVASITSGGRTYYADSVKGRFTISRDNSKNTVYLQMNSLKPEDTAVFYCAADRFGIGGKSGNDYWGQGTQVTVSS
polyreactivity (PSR sort gate): high polyreactivity

QVQLVESGGGLVQAGGSLRLSCAASGRTVAPYAMGWYRPAPGKERELVAGITYRTGNTYYADSVKGRFTISRDNAKNTVYLQMNSLKPEDTAVYYCAAYSGYYRPRYNFWGQGTQVNVSS
polyreactivity (PSR sort gate): high polyreactivity

QVQLVESGGGLVQAGGSLRLSCAASGFTFWDNAMGWYRQAPGKERELVAAISRRGGTTYYADSVKVRFTISRDNAKNTVYLQMNSLKPEDTAVYYCNKAFSLQIYATGMGYWGQGTQVTVSS
polyreactivity (PSR sort gate): high polyreactivity

QVQLVESGGGLVHAGGSLRLSCAASRYTFVNYAMGWYSQAPGKERELVAAITSRGSSTYYADSVKGRFTLSRDNAKNTVYLQMNSLNPEDTAVYYCYVHVRNHDYWGEGTQVTVSS
polyreactivity (PSR sort gate): high polyreactivity

QVQLVESGGGLVQAGGSLRLSCAASGSIFSRNTMGWYRQAPGKERELVAGISSSGSRTYYADSVKGRFTISRDNPKNTVYLQMNSLKPEDTAVYYCAAEHQRSRGRRYYIGYDYWGQGTQVTVSS
polyreactivity (PSR sort gate): low polyreactivity

QVQLVESGGGLVQAGGSLRLSCAASGRIRRYYAMGWYRPAPGKEMELVAVITSSDGSTYYADSVKGRFTISRDNAKTTVYLQMNSLKPEDTAVDYCAAAPLWRLDSWSDPYRRYDYWGQGTQVTVSS
polyreactivity (PSR sort gate): low polyreactivity

QVQLVESGGGLVQAGGSLRLSCAASGSIFSVYDMGWYRQAPGKERELVAAISRSGGSTYYADSVKGRFTISRDNAKNTVYLQRNSLKPEDTAVYYCNAVRRTGGHGDYWGQGTQVTVSS
polyreactivity (PSR sort gate): high polyreactivity

QVQLVESGGGLVQAGGRLRLSCAASGNIFYAYALGWYRQAPGKERELVAAISWSGDSTYYADSVKGRFTISRDNAKNTVYLQMNSLKPEDTAVYYCAARKVTYHYQWMDYWGQGTQVTVSS
polyreactivity (PSR sort gate): low polyreactivity

QVQLEESGAGLVQAGGSLRLSCAASGYIFDKYTLGWYRQAPGKERELVAVISSRGGSTYYADSVKGRFTISRDNAKNTVYVQMNSRKPEDTAVYYCAARFYRPSVPYRYDYWGQGTQVTVSS
polyreactivity (PSR sort gate): high polyreactivity

QDQLVESGGGLVQAGGSLRLSCAASGRISTYTMGWYRQAPGKERELVATISTDASTNYADSVKGRFTISRDNAKNTVYLQMNSLRPEDTAVYYCAAVIVNQDYDYWGQGTQVTVSS
polyreactivity (PSR sort gate): low polyreactivity

QVQLVESGGGLVQAGGSLRLSCAASGNTIDRYDMGWYRQPPGKEREFVAAITASAGSTYADSVKGRFTISRDNAKNTVYLQMNSLKPEDSAVYYCNAGNSSTGVDRYDYWGQGTQVTVSS
polyreactivity (PSR sort gate): low polyreactivity

QVQLVESGGGLVQAGGSLRLSCAASGSTFTTNVMGWYRQAPGKERELVAAISWSSGSTYYADSVKGRFTISRDNAKNTVYLQMNSLKPEDTAVYYCAARLVIFYPYSRYYYWGQGTQVTVSS
polyreactivity (PSR sort gate): high polyreactivity

QVQLVESGGGLVQAGASLRLSCADSGRISESNDMGWNRQAPGKQRELVAAISSSGGSTYYADSVMGRFPISRDNAKNTVYLQMNSLKPEDTALYYCNAVYYRTVLKIGVYEYDYWGQGTQVTVSS
polyreactivity (PSR sort gate): low polyreactivity

QVQLVESGGGLVQAGGSLRLSCAASGFIFDSYAMGWYRQAPGKESELVAAINWNGGRTYYADSVRGRFTISRDNAKNTVYLQMNSLKPEDTAVYYCNAPGIHLGYYRFGYWGQGTQVTVSS
polyreactivity (PSR sort gate): high polyreactivity

QVQLVESGGGLVQAGGSLRLSCAASGGIFLYNAMGWYRQAPGKERELVAAISRSGGGTYYADSVKGRFTISRDNAKNTVYLQMNSLKPEDTAVYYCAKTLRAYSDYYYWGQGTQVTVSS
polyreactivity (PSR sort gate): high polyreactivity

QVQLVESGGGLVQAGGSLRLSWAASGLIFYWYAMGWYRQAPGKERELVAAINRGGSTYYADSVKGRFTISRDNAKNTVYLQMNSLKPEDTAVYYCAAGGYRGRKRFGWDYTYNYWGQGTQVTVSS
polyreactivity (PSR sort gate): low polyreactivity

QVQHVESGGCLVQAGGSLRLSCAASGYTFRYYAMGWYRQAPGKERELVAAINWSGCSTYYADSVKGRFTISRDNAKNTVYLHMNSLKPEDTAVYYCAADPDGDVDIDYDYWGQGTQVTVSS
polyreactivity (PSR sort gate): low polyreactivity

QVQLVESGGGLVQAGGSLRLSCAASGRTFYNTMGLYRQAPGKERELVAAISRGGITNYADSVKGRFTISRDSAKNTGDLQMHSLKPEDTAVYYCNAEPKRYYYYYKFDSWGQGTQVTVSS
polyreactivity (PSR sort gate): high polyreactivity

KVQLVESGGGLVQAGGSLRLSCAASGSTFYYYAMGWNRQAPGKERELVAVITLSGGSTYYADSVKGRFTISRDNAKNTFYLQMNSLKPEDTAVFYCAAEHWEVWNSYYYEYDYWGQGTLVTVSS
polyreactivity (PSR sort gate): high polyreactivity

QVQLVESGGGLVQAGGSLRLSCAASGSSLYYNAMGWYRQAPGKERELVAAISWSGGSTYYADSVKGRFTISRDNAKNTVYLQMNSLKPEDTAVSYCAADQSTVLDVGSWGQGTQVTVSS
polyreactivity (PSR sort gate): low polyreactivity

QVQLVESGGGLVQAGGSLRLSCAASGSIFDDYAMGWYRQAPGKERELVAAMSWSGGRTYYADSVKGRFTISRDYAKNTVYLQMNSLNPEDTAVYYCAATTGVRSRRYYYWGQGTLVTVSS
polyreactivity (PSR sort gate): low polyreactivity

QVQLVESGGGLVQAGGSLRLSCAASGRIFDRYDMGWYRQAPGKERELVAGITASGGSTYYADSVKGRFTISRDNAKNTVYLQMTSLKPEDTAVYYCAVVYGYRYYYWGQGTQVTVSS
polyreactivity (PSR sort gate): high polyreactivity

QVQLVESGGGLVQAGGTLRLSCAASGVIFKVYGMRWYRQAPGKERELVAAISWTTGGTYYADSVKGRFTISRDNAKNTVYLQMNSLKPEDTAVYYCNAPSWYYSGVRYDYWGQGTQVTVSS
polyreactivity (PSR sort gate): high polyreactivity

QVQLVESGGGLVQAGGSLRLSCAASGFIFPRNAMGWYRPAPGKERELVAAISRSGGRTYYADSVKGRFTISRDNAKNTVYLQMNSLKPEDTAVYYCNADLALRSRYGEYDYWGQGTQVTVSS
polyreactivity (PSR sort gate): high polyreactivity

QVQLVESGGGLVQAGGSLRLSCAASGSIFIWYAMGWYRQAPGKERELVATITSSGSTNYADSVKGRFTISRDNAKNTVYLQMNSLKPEDTAVYYCAKRGPLRHYSWGQGTQVTVSS
polyreactivity (PSR sort gate): low polyreactivity

QVQLVESGGGLVQAGGSLRLSCAASGGILDTSAMGWYRQAPGKERELVAAITSGGHTNYADSVKGRFTISRDNAKNTVYLQMNSLKPEDTAVYYCNVVTWYYVFRPWEYDYWGHGTQVTVSS
polyreactivity (PSR sort gate): low polyreactivity

QVQLVESGGGLVQAGGSLRLSCAASGSIFYRNAMGWYRQAPGKERELVASISSSAGRTYYADSVKGRFTISRDNAKNTVYLQMNSLKPEDTAVYYCAVTSYRQRGAFDYWGQGTQVTVSS
polyreactivity (PSR sort gate): high polyreactivity

QVQLVESGGGLVQAGGSLRLSCAASGSIYGFYAKGWYRQAPAKESELVAAIDSGDSSNYADSVKGRFTISRDNAKNTVYLQMKSLIPEDTAVYYWNAEAWWYFCFDYWGQGTQVTVSS
polyreactivity (PSR sort gate): low polyreactivity

QVQLVESGGGLVQAGGSLRLICAASGSTSPTNAMGWYRQAPGKEREFVAAIRGSGSSTRYADSVKGRFTISRDNAKNTVYLQMNSLKPEDTAVYYFDYWGQGTQVTVSS
polyreactivity (PSR sort gate): low polyreactivity

QVQLVESGGGLVQAGGSLRLSCAASGSIFGFYAMGWYIQAPGKERELVAAISDSGDSTYYADSVKGRFTISRDNAKNTVYLQMNSLKPEDTAVYYCATDGRSNYYWGDYWGQGTHVTVSS
polyreactivity (PSR sort gate): low polyreactivity

QVQLVESGGGLFQSGGSLRLTSAASGSTFAYKAMGWYRQAPGKEREFVAAITIGSTYADSVKGRFTISRDNAKNTVYLQMNSLKPEDTAVYYCAVRRPRRNYNYPYDYWGQGTQVTVSS
polyreactivity (PSR sort gate): low polyreactivity

QVQHVESGGGLVQAGGSLRLSCDASGITFGHYTMGWYRQAHGKEREFVAAISWSGGSTYYADSVKGRFTISRDNAKNTVYLQMNSLKPEYTAVYYCNRVKPVIASYDSDYWGQGTQVTVSS
polyreactivity (PSR sort gate): low polyreactivity

QVQLVESGGGLVQAGGSLRLSCAASGTFSYYAMGWYIQAPGKERELVATIRSGGRTYYADSVKGRFTISRDNAKNTVYLQMNSLKPEDTAVYYCAKTGFLGLRQYGYWGQGTRVTVSS
polyreactivity (PSR sort gate): high polyreactivity

QVQLVESGGGLVQAGRSLRLSCAPSGSTFKHNAMGWYRQAPGKERELVATITLRDGSTYYADSVKGRFTISRDNAKNTVYLQMNSLKPEDTAVYYCATYYSAINYGWSKTILYDYWGQGTQVTVSS
polyreactivity (PSR sort gate): low polyreactivity

QVQLVESGGGLVQAGGSLRLSSAASGIIFFFYAMGWYRQAPGKERELVAVITGSGDSTFYADSVKGRFTISRDNAKNTVYLQMNSLKPEDTAVYYCNARQVSGGYYYWGQGTQVTVSS
polyreactivity (PSR sort gate): low polyreactivity
